Experimental data published in US20030143644A1.

Columns and labels:
cytoskeleton [1] = assay: cell-based or functional assay
cytoskeleton [2] = assay: immunoblot densitometry of the detergent insoluble pellet, TCR ligated against non-ligated
cytoskeleton [3] = assay: immunoblot densitometry of the detergent insoluble pellet, resting cells
cytoskeleton [4] = assay: immunoblot densitometry of the pellet after anti-αβTCR plus GAM ligation, thymocytes
cytoskeleton [5] = assay: immunoblot densitometry of the pellet after anti-αβTCR plus GAM ligation, lymph node T cells

Sequence of TCR-ζ (P24161 22-164 limits assumed): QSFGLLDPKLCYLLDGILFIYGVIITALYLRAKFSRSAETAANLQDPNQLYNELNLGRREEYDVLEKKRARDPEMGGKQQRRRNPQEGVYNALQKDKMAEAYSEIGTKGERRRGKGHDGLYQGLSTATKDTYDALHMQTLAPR

| IL-2 production (fold less IL-2 than wild-type CD8/ζ) (cytoskeleton [1]) | fold increase in the pellet against non-ligated samples (lymph node T cells) (cytoskeleton [2]) [fold] | fold increase in the pellet against non-ligated samples (thymocytes) (cytoskeleton [2]) [fold] | percent of TCR-ζ in the detergent insoluble pellet (resting thymocytes and lymph node T cells) (cytoskeleton [3]) [%] | percent of TCR-ζ in the detergent insoluble pellet (activated thymocytes) (cytoskeleton [4]) [%] | percent of TCR-ζ in the detergent insoluble pellet (activated lymph node T cells) (cytoskeleton [5]) [%] | Substance |
| --- | --- | --- | --- | --- | --- | --- |
| 40 | – | – | – | – | – | CD8/ζD67-126 (from UniProt P01731 28-217; P24161 52-164) (receptor) |
| 100 | – | – | – | – | – | CD8/ζY153E (from UniProt P01731 28-217; P24161 52-164) (receptor) |
| – | 6 | 2 | 7 | 16 | 43 | TCR-ζ (from UniProt P24161 22-164) (receptor) |
